Patent publication US20250382354A1 (INSTITUTE FOR RESEARCH IN BIOMEDICINE IRB, published 2025)
Residue numbers refer to the chain shown, from its start.

What was measured:
[1] = target: SARS-CoV-2 SD1-RBD Ancestral (SARS-CoV-2 (ancestral), UniProt P0DTC2 319-591); experiment: SPR, antigen immobilized, Fab injected
SADS FP peptide = SADS FP peptide (SADS); experiment: peptide ELISA
HCoV-229E S ectodomain = target: T1, HCoV-229E S ectodomain (HCoV-229E); experiment: ELISA on coated S
T1 construct: range 17-1142

[2] = target: C-terminally truncated SARS-CoV-2 S protein (pSARS-CoV2-Strunc), ancestral (SARS-CoV-2, UniProt P0DTC2 14-1273); experiment: cell-based or functional assay
HKU24 HR2 peptide [3] = target: HKU24 HR2 peptide (HKU24); experiment: peptide ELISA
Eidolon HR2 peptide [4] = target: Eidolon HR2 peptide (Eidolon); experiment: peptide ELISA
CRCoV-240/05 HR2 peptide = target: T2, CRCoV-240/05 HR2 peptide (CRCoV-240/05); experiment: peptide ELISA
T2 construct: domain: HR2 peptide

HKU24 HR2 peptide [5] = target: HKU24 HR2 peptide (HKU24); experiment: peptide ELISA; remark: listed apart in the source
Eidolon HR2 peptide [6] = target: Eidolon HR2 peptide (Eidolon); experiment: peptide ELISA; remark: listed apart in the source
[7] = target: C-terminally truncated SARS-CoV-2 S protein (pSARS-CoV2-Strunc), ancestral (SARS-CoV-2, UniProt P0DTC2 14-1273); experiment: cell-based or functional assay; remark: listed apart in the source
Rosettus HR2 peptide = Rosettus HR2 peptide (Rosettus); experiment: peptide ELISA
Erinaceus HR2 peptide = Erinaceus HR2 peptide (Erinaceus); experiment: peptide ELISA

B1: sd1.040 Fab (Fab, V domains shown)
VH: QVQLVQSGAEVKKPGASVKVSCKASGYTFTSFYIHWVRQAPGQGLEWMGIIDPSGGSTSYPQKFQGRVTMTRDTSTSTVYMDLSSLRSEDTAVYYCTRDGSAGDNSWFDPWGQGTLVTVSS
VL: not shown
[1]
  Kd: 4.2 nM

B2: fp.005 (antibody, V domains shown)
VH: VQLVESGGGVVQPGNSLRLSCAASGFRFNNYAMHWVRQAPGKGLEWVAIISYEARNEKYADSVKGRFSISRDNAKNTLYLQMNSLRADDTGVYYCARDLFLSDYDTSGYDRTRGGFDYWGQGALVTVSS
VL: EIVMTQSPATLSVSPGERATLSCRASQSVSNGLAWYQHRFGQPPRLLIYGASTRATGIPTRFSGSGSGTEFTLTISSLQSEDFAVYYCQQYDDWPLITFGGGTKVEIK
SADS FP peptide
  EC50: 0.0252 µg/mL
HCoV-229E S ectodomain
  EC50: 0.0416 µg/mL
[2]
  Ancestral Pseudovirus IC50: 9090 ng/mL

B3: hr2.025 (antibody, V domains shown)
VH: EVQLVQSGAEVKKPGESLKISCKGSGYSFTNYWIAWVRLMPGKGLEWMGFIFPGDSDTRYSPSFQGQVTISADKSISTAYLQWSSLKASDTAIYYCARRRGNSGNHDPYGMDVWGHGTTVTVSS
VL: not shown
HKU24 HR2 peptide [3]
  EC50: 0.0719 µg/mL
Eidolon HR2 peptide [4]
  EC50: 2.92 µg/mL

B4: hr2.027 (antibody, V domains shown)
VH: B3 VH with T30A, S77T, Q82H, Y95F
VL: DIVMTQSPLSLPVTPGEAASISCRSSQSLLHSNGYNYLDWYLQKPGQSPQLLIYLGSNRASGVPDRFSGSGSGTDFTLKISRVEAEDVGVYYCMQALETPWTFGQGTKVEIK
HKU24 HR2 peptide [3]
  EC50: 0.0919 µg/mL
Eidolon HR2 peptide [4]
  EC50: 1.21 µg/mL

B5: hr2.012 (antibody, V domains shown)
VH: QVQLVQSGAEVKKPGASVKVSCKASGYTFTSHYIHWVRQAPGQGLEWMGIIKPSGGNTIYAQTFQGRVTMTRDTSTSTVYMELRSLTSDDTAVYYCARDQDHGLQRWGQGTLVTVSS
VL: QSVLTQPPSVSAPPGQKVTISCSGSSSNIGNNFVSWYQQLPGTAPKLLIYDNIERPSGIPDRFSGSRSGTSATLGITGLQTGDEADYYCGTWDTSLGAWVFGGGTKVTVL
HKU24 HR2 peptide [3]
  EC50: 0.0249 µg/mL
Eidolon HR2 peptide [4]
  EC50: 0.463 µg/mL
[2]
  Ancestral Pseudovirus IC50: 1720 ng/mL

B6: hr2.013 (antibody, V domains shown)
VH: QVQLVQSGAEVKKPGASVKISCKASGYTFTNNYMNWVRQAPGQGLEWMGIIKPSSGSTIYAHKFQGRVTMTRDTSTSTVYMEVRSLTSEDTAVYYCARDQDHGLQNWGQGTLVTVSS
VL: B5 VL with P13A, P14S, S21Y, G30A, N31S, L40F, I53N, E54Q, V107L
HKU24 HR2 peptide [3]
  EC50: 0.027 µg/mL
Eidolon HR2 peptide [4]
  EC50: 0.186 µg/mL

B7: hr2.016 (antibody, V domains shown)
VH: EVQLLESGGGLVQPGGSLRLSCAASGFMFSKYAMTWVRQTPGKGLEWVSVISGGGGSTYYADSVKGRFTISRDNSKNTLYLQMNSLRAEDTAVYYCAKLLVVFVIDYWGQGALVTVSS
VL: EIVLTQSPGTLSLSPGERATLFCRASQSVSSNLAWYQQKPGRAPRLLISGASSRATGIPDRFSGSGSGTDFTLTISRLEPEDFAVYYCQQYGSSPPTFGQGTKVEIK
HKU24 HR2 peptide [3]
  EC50: 0.00958 µg/mL
Eidolon HR2 peptide [4]
  EC50: 0.033 µg/mL
[2]
  Ancestral Pseudovirus IC50: 10 ng/mL
  Ancestral Pseudovirus IC50 (on cells with [not given]): 12 ng/mL

B8: CV3-25 (antibody, V domains shown)
VH: QVQLVESGAEVKKPGESLKISCKGSGYTFTRYWIGWVRQMPGKGLEWMGIIYPGDSDTRYSPSFQGHVTISADKSISTAYLQWNSLKASDTAMYYCARLPQYCSNGVCQRWFDPWGQGTLVTVSS
VL: EIVLTQSPSSVSASVGDRVTITCRASQGISSWLAWYQQKPGKAPKLLIYAASSLQSGVPSRFSGSGSGTDFTLTISSLQPEDFATYYCQQGNSFPYTFGQGTNLEIK
CRCoV-240/05 HR2 peptide
  EC50: 1.92 µg/mL
HKU24 HR2 peptide [5]
  EC50: 0.0521 µg/mL
Eidolon HR2 peptide [6]
  EC50: 0.0351 µg/mL
[7]
  Ancestral Pseudovirus IC50: 223 ng/mL
  Ancestral Pseudovirus IC50 (on cells with [not given]): 375 ng/mL

B9: hr2.094 (antibody, V domains shown)
VH: EVQLVESGGGLVQPGGSLRLSCAASGFTFSTFWMTWVRQAPGKGLEWVANIKSDGSEKYYVDSVKGRFTISRDNAKNSLYLQMNSLRAEDTAVYYCATWFGLHWGQGTLVTVSS
VL: DIVMTQSPDSLAVSLGERASINCKSSQTVLYSSNNKNYLAWYQQKPGQPPKLLIHWASTRDSGVPDRFSGSGSGTDFTLTISSLQAEDVAVYYCQQYHRIPWTFGRGTKVEIK
HKU24 HR2 peptide [3]
  EC50: 0.012 µg/mL
Rosettus HR2 peptide
  EC50: 0.656 µg/mL
[2]
  Ancestral Pseudovirus IC50: 2950 ng/mL

B10: hr2.014 (antibody, V domains shown)
VH: QVQLVQSGAEVKKPGASVKVSCKASGYTFTTYAVHWLRQVPGQRPEWIGWINAANGNTKYSEKFQGRVTITRDTSASTAYMDLRSLRSEDTAVYYCARLLVVRDDPYYYGMDVWGQGTTVTVSS
VL: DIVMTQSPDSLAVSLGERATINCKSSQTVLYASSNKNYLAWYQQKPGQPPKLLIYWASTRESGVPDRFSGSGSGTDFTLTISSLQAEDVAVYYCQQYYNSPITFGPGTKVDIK
Erinaceus HR2 peptide
  EC50: 0.117 µg/mL
[2]
  Ancestral Pseudovirus IC50: 355 ng/mL

B11: hr2.023 (antibody, V domains shown)
VH: QVQLVQSGAEVKKPGASVKVSCRASENIFSDSYLHWVRQAPGQGLEWMGIITPSGDKTFYAQQFQGRLTMTRDTPTNTLHMDLRGLTSADTAIYYCARQATKGGWDYWGQGTLVTVSS
VL: EIVLTQSPGTLSLSPGESATLSCRASQSVTRNYLAWYQQQPGQAPRLLIYGASNRATGVPDRFSGSGSGTDFTLTISRLEPEDFAVYYCQQYGSSPPTFIFGPGTKVDIK
HKU24 HR2 peptide [3]
  EC50: 0.0124 µg/mL
Eidolon HR2 peptide [4]
  EC50: 0.126 µg/mL
